# Values quoted from earlier work, collected in publication PMC12692374.
# Target: HIV-1 capsid (Human immunodeficiency virus 1) (UniProt O93182)
# Sequence (O93182 133-363): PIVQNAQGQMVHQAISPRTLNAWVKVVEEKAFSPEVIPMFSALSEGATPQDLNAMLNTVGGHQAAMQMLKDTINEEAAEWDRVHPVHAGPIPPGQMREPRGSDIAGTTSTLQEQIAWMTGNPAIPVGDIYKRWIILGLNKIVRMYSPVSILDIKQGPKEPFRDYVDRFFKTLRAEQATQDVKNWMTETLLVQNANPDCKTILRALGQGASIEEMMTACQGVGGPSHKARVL
# Chain of NONO (Q15233 whole entry): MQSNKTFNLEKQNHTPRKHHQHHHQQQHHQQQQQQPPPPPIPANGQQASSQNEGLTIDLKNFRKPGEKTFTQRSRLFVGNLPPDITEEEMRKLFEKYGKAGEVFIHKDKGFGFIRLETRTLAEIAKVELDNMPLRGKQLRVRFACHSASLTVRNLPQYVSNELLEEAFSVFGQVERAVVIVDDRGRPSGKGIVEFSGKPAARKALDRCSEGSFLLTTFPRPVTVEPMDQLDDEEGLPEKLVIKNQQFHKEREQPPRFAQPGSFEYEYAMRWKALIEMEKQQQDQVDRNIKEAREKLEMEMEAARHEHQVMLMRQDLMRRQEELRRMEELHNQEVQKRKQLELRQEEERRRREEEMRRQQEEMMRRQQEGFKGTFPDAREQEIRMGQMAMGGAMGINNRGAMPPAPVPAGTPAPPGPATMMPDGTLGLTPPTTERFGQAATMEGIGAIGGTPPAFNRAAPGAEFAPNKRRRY
substance,measurement,value
NONO (from UniProt Q15233),Kd,9.15 µM
